Here are results for 1 substance from PMC12649849.

The assay has as its target Protein A on the ProA BLI sensor (Staphylococcus aureus) (UniProt P38507). In words: BLI.

As a reminder, the koff is the rate constant with which the complex falls apart. As a reminder, the kon is the rate constant with which the complex forms. High values mean fast association, low ones slow association. Regarding “ChromPure mouse IgG (whole molecule) (antibody)”, the koff is 0.00121 s⁻¹ and the on-rate (kon) was found to be 92500 M⁻¹ s⁻¹.
